Measurements published in the supplement of paper PMC7877785.
± gives the uncertainty stated by the source.

Test: self-splicing fitness, log relative to wild type (ln ratio); higher = more splicing; Tetrahymena group I intron in knt gene, E. coli kanamycin selection, DiMSum; sequences stand for … in CUCUCU…GGAGGGAAAAGUUAUCAGGCAUGCACCUGGUAGCUAGUCUUUAAACCAAUAGAUUGCAUCGGUUUAAAAGGCAAGACCGUCAAAUUGCGGGAAAGGGGUCAACAGCCGUUCAGUACCAAGUCUCAGGGGAAACUUUGAGAUGGCCUUGCAAAGGGUAUGGUAAUAAGCUGACGGACAUGGUCCUAACCACGCAGCCAAGUCCUAAGUCAACAGAUCUUCUGUUGAUAUGGAUGCAGUUCACAGACUAAAUGUCGGUCGGGGAAGAUGUAUUCUUCUCAUAAGAUAUAGUCGGACCUCUCCUUAAUGGGAGCUAGCGGAUGAAGUGAUGCAACACUGGAGCCGCUGGGAACUAAUUUGUAUGCGAAAGUAUAUUGAUUAGUUUUGGAGUACUCGUGGUCG
Procedure, shortened: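 A randomised library covering all eight P1ex-region intron nucleotides was built with the intron in the knt kanamycin-resistance gene on pET-22b(+) and held in E. coli BL21(DE3). Cells were grown overnight at 37°C or 30°C on LB agar, with or without 25 μg/mL kanamycin, plus 100 μg/mL carbenicillin, 50 μM IPTG and 0.2% rhamnose, and pooled colonies were amplicon-sequenced on an Illumina HiSeq 2500. DiMSum fitness is the error-weighted combination of wild-type-normalised replicate fold changes, kanamycin versus none.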

Sequence | self-splicing fitness (ln) (30 °C) | self-splicing fitness (ln) (37 °C)
CGACAGCAAUAUUACGCAUC | -3.1 ± 0.14 | -2.75 ± 0.25
CGACAGCAAUAUUACGCCAU | -3.77 ± 0.3 | -1.51 ± 0.32
CGACAGCAAUAUUACGCGUA | -1.75 ± 0.28 | -1.58 ± 0.15
CGACAGCAAUAUUACGGCUU | -3.12 ± 0.16 | -1.6 ± 0.14
CGACAGCAAUAUUACGGGUU | -3.47 ± 0.12 | -2.01 ± 0.12
CGACAGCAAUAUUACGGUCC | -1.13 ± 0.11 | -0.69 ± 0.14
CGACAGCAAUAUUACGGUUA | -0.601 ± 0.062 | 0.0311 ± 0.067
CGACAGCAAUAUUACGUAAA | -3.02 ± 0.15 | -2.28 ± 0.21
CGACAGCAAUAUUACGUACA | -0.66 ± 0.078 | -0.392 ± 0.099
CGACAGCAAUAUUACGUAGA | -3.57 ± 0.13 | -2.12 ± 0.15
CGACAGCAAUAUUACGUAGC | -3.61 ± 0.18 | -2.21 ± 0.16
CGACAGCAAUAUUACGUAUU | -3.09 ± 0.14 | -2.53 ± 0.16
CGACAGCAAUAUUACGUCAA | -1.99 ± 0.14 | -1.21 ± 0.12
CGACAGCAAUAUUACGUCCC | -0.895 ± 0.47 | 
CGACAGCAAUAUUACGUCUC | -1.98 ± 0.13 | -2.13 ± 0.2
CGACAGCAAUAUUACGUGAC | -3.67 ± 0.24 | -2.61 ± 0.31
CGACAGCAAUAUUACGUGGG | -3.19 ± 0.14 | -1.54 ± 0.1
CGACAGCAAUAUUACGUUCC | -1.82 ± 0.11 | -0.935 ± 0.14
CGACAGCAAUAUUACGUUCG | -2.52 ± 0.15 | -2.18 ± 0.22
CGACAGCAAUAUUACGUUUA | -1.81 ± 0.11 | -0.394 ± 0.087
CGAGAGCAAUAUUACGAACA | -2.54 ± 0.3 | -2.84 ± 0.41
CGAGAGCAAUAUUACGAAGC | -3.7 ± 0.28 | -2.02 ± 0.27
CGAGAGCAAUAUUACGACCG | -3.71 ± 0.43 | -1.84 ± 0.33
CGAGAGCAAUAUUACGAGCU | -4.6 ± 0.42 | -3.02 ± 0.47
CGAGAGCAAUAUUACGAGUG | -3.53 ± 0.26 | -0.803 ± 0.14

Sequence | self-splicing fitness (ln) (30 °C) | self-splicing fitness (ln) (37 °C)
CGAGAGCAAUAUUACGAUAG | -2.68 ± 0.18 | -2.11 ± 0.18
CGAGAGCAAUAUUACGCCGU | -2.28 ± 0.49 | 
CGAGAGCAAUAUUACGCCUG | -3.12 ± 0.25 | -1.73 ± 0.28
CGAGAGCAAUAUUACGCGUC | -3.01 ± 0.36 | -2.64 ± 0.42
CGAGAGCAAUAUUACGCGUU | -2.8 ± 0.36 | -2.46 ± 0.49
CGAGAGCAAUAUUACGCUUC | -2.04 ± 0.37 | -1.61 ± 0.31
CGAGAGCAAUAUUACGGAAA | -1.65 ± 0.33 | 
CGAGAGCAAUAUUACGGCGA | -2.72 ± 0.3 | -1.28 ± 0.31
CGAGAGCAAUAUUACGGGAU | -2.56 ± 0.13 | -2.53 ± 0.23
CGAGAGCAAUAUUACGGGGC | -2.35 ± 0.31 | -2.61 ± 0.39
CGAGAGCAAUAUUACGGUGU | -3.56 ± 0.21 | -2.73 ± 0.24
CGAGAGCAAUAUUACGUAGC | -4.39 ± 0.42 | -2.52 ± 0.27
CGAGAGCAAUAUUACGUCAU | -3.96 ± 0.4 | -1.78 ± 0.33
CGAGAGCAAUAUUACGUUAA | -2.26 ± 0.22 | 
CGAGAGCAAUAUUACGUUCA | -2.34 ± 0.21 | -2.69 ± 0.31
CGAGAGCAAUAUUACGUUCG | -3.2 ± 0.2 | -1.73 ± 0.23
CGAUAGCAAUAUUACGAACC | -2.68 ± 0.27 | -0.913 ± 0.28
CGAUAGCAAUAUUACGAAGA |  | -2.21 ± 0.4
CGAUAGCAAUAUUACGACGC | -2.34 ± 0.39 | 0.00994 ± 0.27
CGAUAGCAAUAUUACGACUA | -1.8 ± 0.26 | -2.13 ± 0.23
CGAUAGCAAUAUUACGACUG | -0.203 ± 0.083 | 0.803 ± 0.1
CGAUAGCAAUAUUACGACUU | -1.4 ± 0.088 | -1.47 ± 0.13
CGAUAGCAAUAUUACGAUAA | -3.37 ± 0.27 | -2.2 ± 0.35
CGAUAGCAAUAUUACGCCGU | -2.9 ± 0.15 | -1.78 ± 0.14
